Target: T1, ALDH1A2-His6 (UniProt O94788)
T1 sequence: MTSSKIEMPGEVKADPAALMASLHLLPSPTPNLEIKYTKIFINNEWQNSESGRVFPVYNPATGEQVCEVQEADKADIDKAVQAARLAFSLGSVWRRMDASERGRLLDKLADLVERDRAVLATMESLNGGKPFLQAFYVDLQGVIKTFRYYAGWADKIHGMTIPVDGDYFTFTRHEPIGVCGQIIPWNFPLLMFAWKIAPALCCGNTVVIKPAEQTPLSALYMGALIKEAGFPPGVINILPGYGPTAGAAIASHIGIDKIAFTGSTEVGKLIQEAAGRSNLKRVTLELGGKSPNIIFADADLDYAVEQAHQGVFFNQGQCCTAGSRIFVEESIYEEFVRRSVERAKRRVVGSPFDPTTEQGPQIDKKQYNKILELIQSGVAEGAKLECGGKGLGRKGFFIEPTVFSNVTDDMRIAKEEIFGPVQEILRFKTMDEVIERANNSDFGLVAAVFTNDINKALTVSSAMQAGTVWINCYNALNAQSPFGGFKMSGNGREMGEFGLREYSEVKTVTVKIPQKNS

For human UBE3A protein, the “ubiquitination of ALDH1A2 in the reconstituted bacterial ubiquitination system (immunoblot)” value was “the ALDH1A2 protein was highly ubiquitinated in the presence of UBE3A protein”.
